This note sets out measurements from patent publication US20030203415A1 (published 2003).

The target of experiment [1] is T1, human serum albumin (HSA) (human, UniProt P02768 25-609).
T1 construct: control target
The experiment in a line: phage ELISA on immobilized HSA.

The target in experiment [2] is T2, H6NA3 (UniProt P06731 35-144; P06731 499-590, limits assumed).
T2 construct: domain: N domain;domain: A3 domain; recombinant truncated target
T2 sequence: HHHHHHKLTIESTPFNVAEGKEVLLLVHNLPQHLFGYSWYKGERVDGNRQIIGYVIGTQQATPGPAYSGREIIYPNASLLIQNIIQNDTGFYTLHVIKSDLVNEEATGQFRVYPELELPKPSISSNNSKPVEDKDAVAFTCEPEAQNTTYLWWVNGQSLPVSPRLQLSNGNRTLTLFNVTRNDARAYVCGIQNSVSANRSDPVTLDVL
The experiment in a line: fluorescence anisotropy, direct binding. In general terms: Polarisation of emitted light reports the rotation of a fluorescent probe.

Experiment [3] has as its target T2, H6NA3. The experiment in a line: fluorescence anisotropy, direct binding. Here is the method: (§1) Dissociation constants were determined using fluorescence anisotropy, through direct binding measurements and competition experiments. In direct binding assays, the concentration of the fluorescein-labeled peptide is held constant and the concentration of H6NA3 is varied. In the competition experiment, the concentration of the fluorescein-labeled peptide and the H6NA3 target are held constant and the concentration of a competitor (cT84.66, unlabeled) is varied. The change in anisotropy is fit to the appropriate equation via nonlinear regression to obtain the apparent Kd.
Dissociation constants were determined using fluorescence anisotropy, through direct binding measurements (see Example 6).
The source holds these as a separate data set.

The target of experiment [4] is T2, H6NA3. Briefly: fluorescence anisotropy, direct binding. The protocol:
(§2) Dissociation constants were determined using fluorescence anisotropy, through direct binding measurements to either NA-3 or CEA in PBS with 0.01% TWEEN 20. In direct binding assays, the concentration of the fluorescein-labeled peptide is held constant and the concentration of NA3 is varied. In the competition experiment, the concentration of the fluorescein-labeled peptide and the NA3 target are held constant and the concentration of competitor peptide (from Isolate 12-H12) is varied. The change in anisotropy is fit to the appropriate equation via nonlinear regression to obtain the apparent Kd. […] Replicate analyses were run for certain binders and are reported to confirm accuracy and precision of measurements. KD standard error values are calculated from the nonlinear regression (SIGMAPLOT, SPSS Science, Chicago, Ill.).
This is another data set of the same source.

Experiment [5] deals with T3, carcinoembryonic antigen (CEA) (UniProt P06731 35-685, limits assumed).
T3 sequence (looked up): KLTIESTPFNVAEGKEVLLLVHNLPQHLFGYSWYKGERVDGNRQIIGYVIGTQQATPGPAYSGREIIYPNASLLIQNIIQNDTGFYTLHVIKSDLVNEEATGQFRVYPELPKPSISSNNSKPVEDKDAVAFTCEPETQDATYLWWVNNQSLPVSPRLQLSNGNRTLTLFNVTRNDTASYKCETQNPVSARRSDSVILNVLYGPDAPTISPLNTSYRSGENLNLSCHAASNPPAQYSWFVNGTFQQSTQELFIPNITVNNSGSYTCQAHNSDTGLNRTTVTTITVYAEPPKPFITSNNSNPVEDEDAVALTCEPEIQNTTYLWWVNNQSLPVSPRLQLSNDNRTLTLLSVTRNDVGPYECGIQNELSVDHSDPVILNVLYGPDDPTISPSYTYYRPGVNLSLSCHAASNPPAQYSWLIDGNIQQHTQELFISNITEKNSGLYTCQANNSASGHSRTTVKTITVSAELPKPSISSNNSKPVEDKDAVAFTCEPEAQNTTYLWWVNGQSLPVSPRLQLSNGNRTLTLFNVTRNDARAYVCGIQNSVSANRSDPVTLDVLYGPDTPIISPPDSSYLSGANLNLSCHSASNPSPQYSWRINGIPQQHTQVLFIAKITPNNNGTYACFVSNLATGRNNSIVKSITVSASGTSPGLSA
The experiment in a line: fluorescence anisotropy, direct binding. The protocol:
as §2

In experiment [6] the target is T2, H6NA3. Briefly: fluorescence anisotropy, direct binding (replicate). Here is the method: as §2
The target of experiment [7] is T2, H6NA3. The experiment in a line: fluorescence anisotropy, competition with peptide from Isolate 12-H12. Here is the method: as §2
Experiment [8] addresses T2, H6NA3. The experiment in a line: fluorescence anisotropy, competition with peptide from Isolate 12-H12 (replicate). Here is the method: as §2
Experiment [9] concerns the target T2, H6NA3. The experiment in a line: fluorescence anisotropy, direct binding. This is another data set of the same source.
Experiment [10] addresses T2, H6NA3. The experiment in a line: fluorescence anisotropy, direct binding. Here is the method:
as §1
The source holds these as a separate data set.

Experiment [11] addresses T2, H6NA3. Briefly: fluorescence anisotropy, competition with unlabeled cT84.66. The protocol: as §1

“And” between values parts separate entries of the source, which are not always exact repeats. Identical values can stand only once. Ends that are not written are not given here. fluorescein = fluorescein label attached through NHS-fluorescein to the ε-amino side group of the C-terminal lysine

A word on the Kd: it is the constant that tells how readily two partners part at equilibrium. The low end stands for tighter binding, the high end for weaker binding.

T1 sequence (P02768 25-609 limits assumed): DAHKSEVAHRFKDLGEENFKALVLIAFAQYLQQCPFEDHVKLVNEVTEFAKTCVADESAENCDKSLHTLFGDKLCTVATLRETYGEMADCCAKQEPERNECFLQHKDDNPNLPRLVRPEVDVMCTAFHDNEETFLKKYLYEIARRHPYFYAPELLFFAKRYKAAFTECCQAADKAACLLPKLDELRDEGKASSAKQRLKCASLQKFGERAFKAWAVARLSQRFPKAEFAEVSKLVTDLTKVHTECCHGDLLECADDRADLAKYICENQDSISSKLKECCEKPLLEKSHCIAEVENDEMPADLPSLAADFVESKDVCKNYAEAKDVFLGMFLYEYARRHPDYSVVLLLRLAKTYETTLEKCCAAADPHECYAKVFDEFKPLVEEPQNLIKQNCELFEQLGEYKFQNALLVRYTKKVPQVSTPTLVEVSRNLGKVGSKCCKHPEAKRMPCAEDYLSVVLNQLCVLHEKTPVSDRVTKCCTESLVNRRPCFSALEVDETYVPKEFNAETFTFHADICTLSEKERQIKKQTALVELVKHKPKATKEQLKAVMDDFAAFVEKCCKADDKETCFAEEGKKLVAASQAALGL

On to NWFCEMIGRQWGCVPS [TN10/9-F11], for which the binding result in experiment [1] is “no binding”.

B1: 304A-12-H12 synthetic peptide (peptide)
peptide: DWVCEYFKNQWFCNVLAPGGEGGGSK-NH2
modifications: not fully specified (residue 26, bridges); cysteine pairing not given here; also: fluorescein only on labelled aliquots
notes: synthetic; also called DX306
In the case of B1, the “fold increase in affinity compared to the Isolate G08 peptide” value with H6NA3 [2] is 8 fold. Moreover, the Kd with H6NA3 [3] was determined as 240 nM; with H6NA3 [4], 300 nM; in [5] it was 3700 nM; with H6NA3 [6] it was 220 nM; with H6NA3 [7], 340 nM; with H6NA3 [8], 240 nM.

For the molecule NWDCMFGAEGWACSPW (not fully specified (bridges); cysteine pairing not given here) [TN10/9-E01], the binding result in experiment [1] is on record as “no binding”.

B2: Hybrid H12/A12 (peptide, part only; not given: C-terminal lysine extension, part only)
peptide, part: DWVCEYFKNQWFCDTL
modifications: not fully specified (C-terminus, bridges); cysteine pairing not given here; also: fluorescein on ε-amino of C-terminal lysine, no C-terminal K in given chain
For B2, the Kd with H6NA3 [9] is 2800 nM. This lies in the single-digit micromolar range.

B3: P-A07 (peptide)
peptide: SDWVCENKKDQWTCNLLAPGGEGGGSK(fluorescein)-NH2
modifications: not fully specified (bridges); printed as SDWVCENKKDQWTCNLLAPGGEGGGSK-CONH2; cysteine pairing not given here; also: fluorescein on C-terminal Lys ε-amino in labelled aliquots
notes: synthetic 27-mer
With B3, the Kd was determined as 5900 nM with H6NA3 [10] and 3600 nM with H6NA3 [11].

B4: P-B09 (peptide)
peptide: SDWVCELTTGGYVCQPLAPGGEGGGSK(fluorescein)-NH2
modifications: not fully specified (bridges); printed as SDWVCELTTGGYVCQPLAPGGEGGGSK-CONH2; cysteine pairing not given here; also: fluorescein on C-terminal Lys ε-amino in labelled aliquots
notes: synthetic 27-mer
Regarding B4, the Kd worked out at 6000 nM in the experiment with H6NA3 [10] and 1000 nM in the experiment with H6NA3 [11].

B5: 315A-17-G08 synthetic peptide (peptide)
peptide: DWVCEFIKSQWFCNVLAPGGEGGGSK(fluorescein)-NH2
modifications: not fully specified (bridges); cysteine pairing not given here; also: fluorescein on C-terminal Lys ε-amino in labelled aliquots
notes: synthetic
Take B5: the Kd came to 270 nM in the experiment with H6NA3 [4], 1600 nM in experiment [5], 160 nM in the experiment with H6NA3 [7] and 160 nM with H6NA3 [8].

B6: 315A-18-E01 synthetic peptide (peptide)
peptide: DWVCEIVKNQWICNPLAPGGEGGGSK(fluorescein)-NH2
modifications: not fully specified (bridges); cysteine pairing not given here; also: fluorescein on C-terminal Lys ε-amino in labelled aliquots
notes: synthetic
Turning to B6, the Kd with H6NA3 [4] was 870 nM; in the experiment with H6NA3 [7] it was 230 nM; in the experiment with H6NA3 [8], 490 nM and 170 nM.

B7: 315A-17-B01 synthetic peptide (peptide)
peptide: DWVCEWLKMQWACNILAPGGEGGGSK(fluorescein)-NH2
modifications: not fully specified (bridges); cysteine pairing not given here; also: fluorescein on C-terminal Lys ε-amino in labelled aliquots
notes: synthetic
For the molecule B7, the results for the Kd with H6NA3 [4], with H6NA3 [7] and with H6NA3 [8] were 950 nM, 900 nM and 1200 nM, respectively.

B8: P-G08 (peptide)
peptide: SNWVCNLFKNQWFCNSYAPGGEGGGSK(fluorescein)-NH2
modifications: not fully specified (bridges); printed as SNWVCNLFKNQWFCNSYAPGGEGGGSK-CONH2; cysteine pairing not given here; also: fluorescein on C-terminal Lys ε-amino in labelled aliquots
notes: synthetic 27-mer; also called Isolate G08 peptide
Regarding B8, the equilibrium dissociation constant (Kd) with H6NA3 [10] is 1900 nM.

For the molecule NWVCNLFKNQWFCNSY (also called TN10/9 Isolate G08) [FX-G08], the binding result in experiment [1] is given as “no binding”.

Consider DWVCENKKDQWTCNLL (not fully specified (bridges); cysteine pairing not given here, also called TN10/9 Isolate A07) [AB-A07], for which, in experiment [1], the binding result is recorded as “no binding”.

B9: 315A-18-E02 synthetic peptide (peptide)
peptide: DWVCEFFKDQWFCNILAPGGEGGGSK(fluorescein)-NH2
modifications: not fully specified (bridges); cysteine pairing not given here; also: fluorescein on C-terminal Lys ε-amino in labelled aliquots
notes: synthetic
Consider B9, for which the Kd with H6NA3 [4] is 380 nM; in [5], 2600 nM; with H6NA3 [7], 310 nM; with H6NA3 [8] it was 290 nM and 220 nM and 140 nM.

B10: 315A-17-B12 synthetic peptide (peptide)
peptide: DWVCEWLKPQWYCNSLAPGGEGGGSK(fluorescein)-NH2
modifications: not fully specified (bridges); cysteine pairing not given here; also: fluorescein on C-terminal Lys ε-amino in labelled aliquots
notes: synthetic
Consider B10, for which the Kd with H6NA3 [4] turned out to be 1800 nM; with H6NA3 [7], 650 nM. Moreover, the binding result in experiment [5] is “no binding”.

As to DWVCNFDQGLAHCFPS (not fully specified (bridges); cysteine pairing not given here) [TN10/9-D04], in experiment [1], the binding result is given as “no binding”.

Regarding RYCEFFPWSLHCGRP (also called TN10/9 Isolate B10) [B10], in experiment [1], the binding result is on record as “no binding”.

B11: 304A-14-A12 synthetic peptide (peptide, part only; not given: C-terminal lysine extension, part only)
peptide, part: DWVCNLFKNQWFCDTL
modifications: not fully specified (C-terminus, bridges); cysteine pairing not given here; also: fluorescein on ε-amino of C-terminal lysine, no C-terminal K in given chain
The molecule B11 yielded a dissociation constant Kd in the experiment with H6NA3 [9] of 640 nM.

Take NWRCKLFPRYPYCSSW (also called TN10/9 Isolate G01) [G01]: the binding result in experiment [1] is listed as “no binding”.
